The record followed here is paper PMC5511190.

The target in this test is GST-LRRK2 WD40 G2385R (human) (UniProt Q5S007). In words: affinity purification with mass spectrometry; 5 µg GST fusion protein on glutathione-Sepharose incubated with adult mouse brain lysate or crude SV fraction (LP2) (1 mg protein) 2 h at 4 °C; washes 150 mM NaCl, 2 mM EDTA, 50 mM Tris-HCl, 0.2% Triton, pH 7.4; LC-MS/MS with label-free quantification, 4 samples per condition (GST-control, GST-WD40, GST-WD40-G2385R).
Chain of GST-LRRK2 WD40 G2385R (human) (Q5S007 whole entry G2385R, the tested form may be a part): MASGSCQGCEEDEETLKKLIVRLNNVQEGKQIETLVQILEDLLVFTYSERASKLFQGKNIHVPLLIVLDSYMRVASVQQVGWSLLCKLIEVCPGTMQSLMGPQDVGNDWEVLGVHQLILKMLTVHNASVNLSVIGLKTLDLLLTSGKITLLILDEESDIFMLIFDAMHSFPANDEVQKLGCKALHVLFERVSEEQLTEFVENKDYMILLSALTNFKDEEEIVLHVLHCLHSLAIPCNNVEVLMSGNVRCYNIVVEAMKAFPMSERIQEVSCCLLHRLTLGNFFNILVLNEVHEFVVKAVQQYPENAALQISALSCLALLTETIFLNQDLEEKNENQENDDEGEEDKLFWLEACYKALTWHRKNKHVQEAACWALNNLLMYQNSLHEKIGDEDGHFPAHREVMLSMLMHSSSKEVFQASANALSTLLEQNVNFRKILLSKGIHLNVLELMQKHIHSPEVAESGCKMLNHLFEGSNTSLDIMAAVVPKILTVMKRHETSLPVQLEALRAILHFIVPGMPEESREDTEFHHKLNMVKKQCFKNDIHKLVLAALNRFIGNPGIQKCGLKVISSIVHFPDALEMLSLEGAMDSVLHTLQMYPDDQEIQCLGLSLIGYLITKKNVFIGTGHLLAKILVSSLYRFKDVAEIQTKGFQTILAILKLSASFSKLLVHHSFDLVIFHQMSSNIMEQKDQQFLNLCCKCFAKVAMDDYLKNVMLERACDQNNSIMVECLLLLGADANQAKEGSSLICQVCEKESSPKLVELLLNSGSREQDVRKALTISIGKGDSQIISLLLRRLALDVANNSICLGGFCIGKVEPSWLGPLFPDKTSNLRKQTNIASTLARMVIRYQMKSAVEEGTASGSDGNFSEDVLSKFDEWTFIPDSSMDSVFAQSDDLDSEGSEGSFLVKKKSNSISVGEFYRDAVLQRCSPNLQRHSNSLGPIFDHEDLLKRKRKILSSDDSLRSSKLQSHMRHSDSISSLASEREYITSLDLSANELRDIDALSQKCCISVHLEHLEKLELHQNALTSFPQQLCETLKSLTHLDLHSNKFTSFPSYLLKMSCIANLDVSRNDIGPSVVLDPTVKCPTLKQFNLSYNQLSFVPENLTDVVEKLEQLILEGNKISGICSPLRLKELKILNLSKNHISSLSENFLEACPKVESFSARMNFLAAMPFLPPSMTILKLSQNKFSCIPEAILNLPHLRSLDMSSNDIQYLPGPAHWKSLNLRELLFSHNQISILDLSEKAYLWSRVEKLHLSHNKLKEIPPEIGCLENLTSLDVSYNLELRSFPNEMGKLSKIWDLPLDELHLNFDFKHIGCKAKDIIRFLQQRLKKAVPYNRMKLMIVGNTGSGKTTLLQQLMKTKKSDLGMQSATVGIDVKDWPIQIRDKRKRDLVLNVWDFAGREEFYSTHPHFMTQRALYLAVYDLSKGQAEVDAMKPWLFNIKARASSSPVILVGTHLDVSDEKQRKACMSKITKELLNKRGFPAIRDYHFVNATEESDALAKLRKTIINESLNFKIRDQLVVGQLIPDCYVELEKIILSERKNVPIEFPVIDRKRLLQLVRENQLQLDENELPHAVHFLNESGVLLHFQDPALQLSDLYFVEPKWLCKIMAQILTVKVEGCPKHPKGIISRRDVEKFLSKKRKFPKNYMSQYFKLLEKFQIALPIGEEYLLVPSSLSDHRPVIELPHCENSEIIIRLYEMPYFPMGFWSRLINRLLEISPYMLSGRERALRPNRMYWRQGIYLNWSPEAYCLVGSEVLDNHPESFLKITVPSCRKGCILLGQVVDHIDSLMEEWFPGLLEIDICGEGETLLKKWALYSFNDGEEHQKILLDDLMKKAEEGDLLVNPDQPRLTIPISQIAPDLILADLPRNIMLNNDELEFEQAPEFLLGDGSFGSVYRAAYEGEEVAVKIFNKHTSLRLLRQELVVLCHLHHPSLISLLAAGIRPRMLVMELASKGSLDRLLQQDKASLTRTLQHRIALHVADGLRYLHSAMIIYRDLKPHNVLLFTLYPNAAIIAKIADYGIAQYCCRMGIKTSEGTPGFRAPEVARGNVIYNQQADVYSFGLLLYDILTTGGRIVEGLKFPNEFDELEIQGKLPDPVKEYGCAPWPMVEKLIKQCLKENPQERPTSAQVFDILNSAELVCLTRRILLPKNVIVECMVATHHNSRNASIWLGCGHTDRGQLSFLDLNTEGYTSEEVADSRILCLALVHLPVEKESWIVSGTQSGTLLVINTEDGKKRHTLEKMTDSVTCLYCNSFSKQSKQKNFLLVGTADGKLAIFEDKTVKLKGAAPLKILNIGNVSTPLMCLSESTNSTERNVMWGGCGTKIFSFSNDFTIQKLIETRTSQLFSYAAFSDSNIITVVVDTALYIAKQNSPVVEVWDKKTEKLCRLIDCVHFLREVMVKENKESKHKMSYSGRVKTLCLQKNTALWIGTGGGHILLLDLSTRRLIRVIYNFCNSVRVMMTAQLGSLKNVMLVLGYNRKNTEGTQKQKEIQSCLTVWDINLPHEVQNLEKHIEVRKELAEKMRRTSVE

B1: CaM kinase-like vesicle-associated protein (natural protein)
chain: MPFGCVTLGDKKNYNQPSEVTDRYDLGQVIKTEEFCEIFRAKDKTTGKLHTCKKFQKRDGRKVRKAAKNEIGILKMVKHPNILQLVDVFVTRKEYFIFLELATGREVFDWILDQGYYSERDTSNVVRQVLEAVAYLHSLKIVHRNLKLENLVYYNRLKNSKIVISDFHLAKLENGLIKEPCGTPEYLAPEVVGRQRYGRPVDCWAIGVIMYILLSGNPPFYEEVEEDDYENHDKNLFRKILAGDYEFDSPYWDDISQAAKDLVTRLMEVEQDQRITAEEAISHEWISGNAASDKNIKDGVCAQIEKNFARAKWKKAVRVTTLMKRLRAPEQSGTAATQSASDAATPGAAGGAIAAAAAAAAAGGAASASGASATAATEGGAGCAAKSDDIASADRSATPATDGSATPATDGSVTPATDGSITPATDGSVTPATDRSATPATDGRATPATEESTVPATQSSALPAAKAAATPEPAVAQPDSTALEGATGQAPPSSKGEEATGCAQESQRVETS
Regarding B1, the G2385R/WT (ratio of abundance in G2385R versus wild-type bait) came out at 0.58.

B2: Guanine deaminase (natural protein)
chain: MCAARTPPLALVFRGTFVHSTWTCPMEVLRDHLLGVSDSGKIVFLEESSQQEKLAKEWCFKPCEIRELSHHEFFMPGLVDTHIHAPQYAFAGSNVDLPLLEWLNKYTFPTEQRFRSTDVAEEVYTRVVRRTLKNGTTTACYFGTIHTDSSLILAEITDKFGQRAFVGKVCMDLNDTVPEYKETTEESVKETERFVSEMLQKNYPRVKPIVTPRFTLSCTETLMSELGNIAKTHDLYIQSHISENREEIEAVKSLYPSYKNYTDVYDKNNLLTNKTVMAHGCYLSEEELNIFSERGASIAHCPNSNLSLSSGLLNVLEVLKHKVKIGLGTDVAGGYSYSMLDAIRRAVMVSNVLLINKVNEKNLTLKEVFRLATLGGSQALGLDSEIGNFEVGKEFDALLINPRASDSPIDLFYGDFVGDISEAVIQKFLYLGDDRNIEEVYVGGKQVVPFSSSV
On to B2, for which the G2385R/WT (ratio of abundance in G2385R versus wild-type bait) is 0.15.

B3: 14-3-3 protein eta (natural protein)
chain: MGDREQLLQRARLAEQAERYDDMASAMKAVTELNEPLSNEDRNLLSVAYKNVVGARRSSWRVISSIEQKTMADGNEKKLEKVKAYREKIEKELETVCNDVLALLDKFLIKNCNDFQYESKVFYLKMKGDYYRYLAEVASGEKKNSVVEASEAAYKEAFEISKEHMQPTHPIRLGLALNFSVFYYEIQNAPEQACLLAKQAFDDAIAELDTLNEDSYKDSTLIMQLLRDNLTLWTSDQQDEEAGEGN
On to B3, for which the G2385R/WT (ratio of abundance in G2385R versus wild-type bait) was determined as 0.52.

B4: WD repeat-containing protein 1 (natural protein)
chain: MPYEIKKVFASLPQVERGVSKILGGDPKGDHFLYTNGKCVILRNIDNPAIADIYTEHAHQVVVAKYAPSGFYIASGDISGKLRIWDTTQKEHLLKYEYQPFAGKIKDIAWTEDSKRIAVVGEGREKFGAVFLWDTGSSVGEITGHNKVINSVDIKQTRPYRLATGSDDNCAAFFEGPPFKFKFTIGDHSRFVNCVRFSPDGNRFATASADGQIFIYDGKTGEKVCALGESKAHDGGIYAISWSPDSTHLLSASGDKTSKIWDVNVNSVVSTFPMGSNVLDQQLGCLWQKDHLLSISLSGYINYLDKNNPSKPLRVIKGHSKSIQCLTVHRNGGKSYIYSGSHDGHINYWDSETGENDSFSGKGHTNQVSRMTVNESEQLVSCSMDDTVRYTNLTLRDYSGQGVVKLDVQPKCVAVGPGGYTVVVCIGQIVLLKDQKKCFSIDNPGYEPEVVAVHPGGDTVAVGGTDGNVRVYSILASTLKDEGKLLEAKGPVTDVAYSHDGAFLAVCDASKVVTVFSVADGYSENNVFYGHHAKIVCLAWSPDNEHFASGGMDMMVYVWTLSDPETKVKIQDAHRLHHVSSLAWLDEHTLVTTSHDASVKEWTITY
Take B4: the G2385R/WT (ratio of abundance in G2385R versus wild-type bait) is 0.34.

B5: 14-3-3 protein theta (natural protein)
chain: MEKTELIQKAKLAEQAERYDDMATCMKAVTEQGAELSNEERNLLSVAYKNVVGGRRSAWRVISSIEQKTDTSDKKLQLIKDYREKVESELRSICTTVLELLDKYLIANATNPESKVFYLKMKGDYFRYLAEVACGDDRKQTIENSQGAYQEAFDISKKEMQPTHPIRLGLALNFSVFYYEILNNPELACTLAKTAFDEAIAELDTLNEDSYKDSTLIMQLLRDNLTLWTSDSAGEECDAAEGAEN
On to B5, for which the G2385R/WT (ratio of abundance in G2385R versus wild-type bait) worked out at 0.35.

B6: 14-3-3 protein beta/alpha (natural protein)
chain: MTMDKSELVQKAKLAEQAERYDDMAAAMKAVTEQGHELSNEERNLLSVAYKNVVGARRSSWRVISSIEQKTERNEKKQQMGKEYREKIEAELQDICNDVLELLDKYLILNATQAESKVFYLKMKGDYFRYLSEVASGENKQTTVSNSQQAYQEAFEISKKEMQPTHPIRLGLALNFSVFYYEILNSPEKACSLAKTAFDEAIAELDTLNEESYKDSTLIMQLLRDNLTLWTSENQGDEGDAGEGEN
With B6, the G2385R/WT (ratio of abundance in G2385R versus wild-type bait) is 0.37.

B7: Profilin-2 (natural protein)
chain: MAGWQSYVDNLMCDGCCQEAAIVGYCDAKYVWAATAGGVFQSITPVEIDMIVGKDREGFFTNGLTLGAKKCSVIRDSLYVDGDCTMDIRTKSQGGEPTYNVAVGRAGRVLVFVMGKEGVHGGGLNKKAYSMAKYLRDSGF
With B7, the G2385R/WT (ratio of abundance in G2385R versus wild-type bait) is 0.37.
